Data as given in the nanobody polyreactivity screen of Harvey et al. (2022).

Assay: yeast display, Sf9 membrane polyspecificity reagent, FACS + sequencing; frameworks hold sequencing errors
Summary of the method: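 Sorting gates, low and high (top ~1%), were placed on anti-HA fluorescence to track expression and on streptavidin fluorescence to track reagent binding. A clone's polyreactivity label is taken from the gate it came out of. The reagent was 10% biotinylated, detergent-solubilized Sf9 membrane, applied for 1 hour at 4 °C to galactose-induced yeast display cells.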

Row | Sequence | polyreactivity (PSR sort gate)
1 | QVQLVESGGGLVQAGGSLRLSCAASGRTFDRYAMGWYRQAPGKERELVAAITWSGGRTYYADSVKGRFTISRDNAKNTVYLQMNSLKPEDTAVYYCAADNSYRGYHSPYDYWGQGTQVTVSS | low polyreactivity
2 | QVQLVESGGGLVQAGGSLRLSCAASGRTFDSYAMGWYRQAPGKERELVAAIYADSVKGRFTISRDNAKNTVYLQMNSLKPEDTAVYYCAAETYSGQTYLGEYDYWGQGTQVTVSS | low polyreactivity
3 | QVQLVESGGGLVQAGGSLRLSCAASGRTFDSYTMGWYRQAPGKERELVADITFTGGSTYYADSVKGRFTISRDNAKNTVYLQMNSLKPEDTAVYYCNADREYKWYFRYDYWGQGTQVTVSS | low polyreactivity
4 | QVQLVESGGGLVQAGGSLRLSCAASGRTFDTNARGWYRQAPGKERELVAVITARGGNTSYADSVKGRFTISRDNAKNTVYLQMNSLKPEDTAVYYCAARVYRAPWTYEEGNYWGQGTQVTVSS | low polyreactivity
5 | QVQLVESGGGLVQAGGSLRLSCAASGRTFDTNPMGWYRQAPGKERELVAVITARGGNTSYADSVKGRFTISRDNAKNTVYLQMNSLKPEDTAVYYCAARVYRAPWTYEEGNYWGQGTQVTVSS | low polyreactivity
6 | QVQLVESGGGLVQAGGSLRLSCAASGRTFDYNAIGWYRQAPGKERDFVAAISGRGGSTYYADSVKARFTISRDNAKNRVYLQMYSLKPEDTAVYYCAADLRFRYSGRYDYWGQGTQVTVSS | high polyreactivity
7 | QVQLVESGGGLVQAGGSLRLSCAASGRTFDYNTMGWYRQAPGKERELVAAISASGGSTYYADSVKGRFTISRDNAKNTVYLQMNSLKPEDTAVYYCAAARAAIVPGYYSWGQGTQVTVSS | low polyreactivity
8 | QVQLVESGGGLVQAGGSLRLSCAASGRTFDYYAMGWYRPAPGKERELVAAIRTSGGSTNYADSVKGRFTISRDNAQNTVYLLMNSLKPEDTAVYYCAARDRPGAYYYGGQGTQVTVSS | high polyreactivity
9 | QVQLVESGGGLVQAGGSLRLSCAASGRTFEGNAMGWYRQAPGKERELVAAITSGGRTNYADSVKGRFTISRDNAKNTVYLQMNSLKPEDTAVYYCAKVYRSIGPNVSRYGLSYYYWGLGTQVTVSS | low polyreactivity
10 | QVQLVESGGGLVQAGGSLRLSCAASGRTFEHYAMGWYRQAPGKERELVAAINSSDGGTYYADSVKGRITISRDNPKNTVYLQMNSLKPEDTAVYYCAAAEFGSVPGYEMDYWGQGTQVTVSS | low polyreactivity
11 | QVQLVESGGGLVQAGGSLRLSCAASGRTFENNAMGWYRQAPGKERELVATIRYSGTSTYADSVKGRFTISRDNAKNTVYLQMNSLKPEDTAVYYCAKQVRYYGYKYNYWGQGTQVTVSS | high polyreactivity
12 | QVQLVESGGGLVQAGGSLRLSCAASGRTFEQYAMGWYRQAPGKERELVAAISKRGGSTYYADSVKGRFTISRDNAKNTVYLQMNSLKPEDTAVYYGATEKASNYFYRFDYWGQGTQVTVSS | low polyreactivity
13 | QVQLVESGGGLVQAGGSLRLSCAASGRTFESYAMGWYRQAPGKERELVAAITWSGGDTYYADSVKGRFTISRDNAKNSVYLQMNSLKPEDTAVYYCAKEQGLYSVSPYDYWGQGSQVTVSS | low polyreactivity
14 | QVQLVESGGGLVQAGGSLRLSCAASGRTFETNAMGWYRQAPGKERELVAAISRSGGRTYYADSVKGRFTISRDNAKNTVYLQMNSLKPEDTAVYYCAVRQATVTGGGYWGQGTQVTVSS | high polyreactivity
15 | QVQLVESGGGLVQAGGSLRLSCAASGRTFEVYAMGRYRQPPGKERELVATITYSGGITYYADSVKGRFTISRDNAKNTVYLQMNSLKPEYTAVYYPICVGGDYDYWGQGTQVTVSS | low polyreactivity
16 | QVQLVESGGGLVQAGGSLRLSCAASGRTFEVYAMGWYRQAPGKERELVAAISGGDDSTYYADSVQGRFTISRDNAKNTVYLQRNSLKPEDTAVYYCNAHYPTSATLPKTVVEYDYWGQGTQVTVSS | low polyreactivity
17 | QVQLVESGGGLVQAGGSLRLSCAASGRTFFDYSMGWYRQAPGKERELVAAITGGDGSTYYADSVKGRFTISRDNAKNTVYIQMNSLKTEDTAVYYCAAENTRTYWYAAMDYWGQGTQVTVSS | low polyreactivity
18 | QVQLVESGGGLVQAGGSLRLSCAASGRTFFGRNVMGWYRPAPGNDRELVAAITSSGASTYYADSVKGRFTISRDNAKNTVYLQMNSLKPEDTAVYYCAAVRYVWQGYDYWGQGTQVTVSS | high polyreactivity
19 | QVQLVESGGGLVQAGGSLRLSCAASGRTFFGYAMGWYRQAPGKERELVAAITSSGGRTYYADSVKGRFTISRDNAKNTVYLQMNSLKTEDTAVYYCNTVLSFRSVNIYRGRGDYWGQGTLVTVSS | high polyreactivity
20 | QVQLVESGGGLVQAGGSLRLSCAASGRTFFHYAMGWSRQAPGKERELVAGISSGGRTKYADSVKGRFTISRDNAKNTVYLQMNSLKPEDTAVYYCAASYIVWLTRGAPRKRFDYWGQGTQVTVSS | high polyreactivity
21 | QVQLVESGGGLVQAGGSLRLSCAASGRTFFHYAMGWYRQAPGKERELVAAISYRGTSTYYADSVKGRFTISRDNAKNTVYLQMISLKPEDTAVYYCNAYSTRCGWSYRGDSWGQGTQVTVSS | high polyreactivity
22 | QVQLVESGGGLVQAGGSLRLSCAASGRTFFLYAMGWYRQAPGKESEFVATISYGGGSTYYADSVKGRFTISRDNAKNTVYLQMNSLKPEDTAVYYCNALNTSQYAEGTSDYDGNMGNWGQCTQVTVSS | low polyreactivity

Row | Sequence | polyreactivity (PSR sort gate)
23 | QVQLVESGGGLVQAGGSLRLSCAASGRTFFQYAMGGYRQAPGKERELVAAIRWSDSTYYADSVKGRFTISRDKAKNTVYLPMNSLKPEDTAVYYCNASVFQSEYDYWGQGTQVTVSS | low polyreactivity
24 | QVQLVESGGGLVQAGGSLRLSCAASGRTFFRYAMGWYRQAPGKERELVAAISSSGGSSYYADSVKGRFTISRDNAKNTVYLQMNSLKPEDTAVYYCNRVYALTYYAKYGYDFWGQGTQVTVSS | high polyreactivity
25 | QVQLVESGGGLVQAGGSLRLSCAASGRTFFRYARGGYRQAPGKERELVAAISVSGASTNYADSVKGRFTISRDNAKNTGYLQMNSQKPEDTAVYYCAARVADYDGVPLYRHGDYWGPGTQVTVSS | low polyreactivity
26 | QVQLVESGGGLVQAGGSLRLSCAASGRTFFWNAMGWYRQAPGKERELVAAITWSGGSTYYADSVKGRFTISRDNAKTTVYLQMNSLKPEDTAVYYCAAVVSDYVWRYEYWGQGTQVTVSS | low polyreactivity
27 | QVQLVESGGGLVQAGGSLRLSCAASGRTFFYAMGWYRQAPGKEREFVAAISWSGGSTYYADSVKGRFTISRDNAKNTVYLQMNSLKPEDTAVYYCNKVGYYGVGTSQEFDYWGQGTQVTVSS | high polyreactivity
28 | QVQLVESGGGLVQAGGSLRLSCAASGRTFFYYAMGWYRQATGKERELVAAITSSGGSTNYADSVKGRFTISRDNAKNTVYLQMNSLKPEDTAVYYCNRDRRLNRVPYFDYWGQGTQVTVSS | high polyreactivity
29 | QVQLVESGGGLVQAGGSLRLSCAASGRTFFYYTMGWYRQAPGKERELVAAISRSGGSTYYADSVKGRFTITRDKAKNTVYLQMNSLKPEDTAVYYCAADRSRNFDWGQGTQVTVSS | high polyreactivity
30 | QVQLVESGGGLVQAGGSLRLSCAASGRTFGANAMGWYRQAPGKERELVAAISSSDDSTYYADSVKGRFTISRDNAKNTVYLQMNSLKPEDTAVYYCAAEDVYPQLDYWGQGTQVTVSS | low polyreactivity
31 | QVQLVESGGGLVQAGGSLRLSCAASGRTFGANTMGWYRPAPGKERELVAAITWSGDSTYYADSVKGRFTISRDNAKNTVYLQMNSLKPEDTAVYYCAARLWRQYYYWGQGTQVTVSS | high polyreactivity
32 | QVQLVESGGGLVQAGGSLRLSCAASGRTFGDYAMGGYRPAPGKESELVAAISRRGGNTYYADSVKGRFTISRDNAKNTVYLQMNSLKPDDTAVYDCAAVAYALGFASKEDYWGQGTQVTGSS | high polyreactivity
33 | QVQLVESGGGLVQAGGSLRLSCAASGRTFGFNAKGRYRQAPGTERELVAAISGSGGRPYYADSVKWRFTISRDNAKNTDYLQMNSLKPEDSAVYYCAAGARRGGSGYWGQGTQVTVSS | high polyreactivity
34 | QVQLVESGGGLVQAGGSLRLSCAASGRTFGGNAMGWSRQAPGKERELVAAISISGGSNTYYADSVKGRFTISRDNGKNTVYLQMNSLKPEDTAVYYCAARSTVYISSDYWGQGTQVTVSS | low polyreactivity
35 | QVQLVESGGGLVQAGGSLRLSCAASGRTFGGNAMGWYRQAPGKERELVAAITGRGGSTYYADSVKGRFTISRDNAKNTVYLQMNSLKAEDTAVYYCAKQFKRGYGYDYWGQCTQVTVSS | low polyreactivity
36 | QVQLVESGGGLVQAGGSLRLSCAASGRTFGGNAMGWYRQAPGKERELVATIRSSSSTNYADSVKGRFTISRDNAKNTVYLQMNSLKPEDTAVYYCARRSQRGIYSMYYWGQGTQVTVSS | low polyreactivity
37 | QVQLVESGGGLVQAGGSLRLSCAASGRTFGGNAMGWYRQAPGKERELVATIRSSSSTNYADSVKGRFTISRDNAKNTVYVQMNSLKQEDTAVYYCNAARPDALNTYGYGFDYWGQGTQVTVSS | low polyreactivity
38 | QVQLVESGGGLVQAGGSLRLSCAASGRTFGGNAMGWYRQAPGKEREYVAAISRSGTSTYYADSVKGRFTISRDNAKNTVYLQMNSLKPEDTGVYYCAALNYHKFAHKSDYWGQGTQVTVSS | low polyreactivity
39 | QVQLVESGGGLVQAGGSLRLSCAASGRTFGGYALGWYRQAPGKERELVAAISSGGGTYADSVKGRFTISRDNAKNTVYIQMNSLKPEDTAVYYCAAGYRWYWASKPTVHYYYWGPGTQVTVSS | high polyreactivity
40 | QVQLVESGGGLVQAGGSLRLSCAASGRTFGGYAMGWYRQAPGKERELVAAISRSGGSTRYADSVKGRFTISRDNAKNTVYLQMNSLKPEDTAVYYCAARQKYEILMEYWGQGTQVTVSS | high polyreactivity
41 | QVQLVESGGGLVQAGGSLRLSCAASGRTFGGYVMGWYIQAPGKERELVASISSSAGSTYYADSVKGRFTISRDNAKNTVYLQMNSLKTEDTAVYYCAKRSYNPYYRYYRYPYGYWGQGTQVTVSS | high polyreactivity
42 | QVQLVESGGGLVQAGGSLRLSCAASGRTFGHNAMGWYRQAPGKEREFVAAITYSGVRTFYADSVKGRFTISRDNAKNTVYLQMNSLKPEDTSVYYCATDWRRDYDYWGQGTQVTVSS | low polyreactivity
43 | QVQLVESGGGLVQAGGSLRLSCAASGRTFGHYAMGLYRQAPGKERELVADITRRGGSTSYADSVKGRFTISRDNAKNTVYLQMNSLKPEDTAVYYCNKAADGSSHYDYWGQGTQVTVSS | low polyreactivity
